Measured values published in the RNAGym collection of RNA variant scans (doi:10.7554/elife.90254).

B1: OR4K15 (parent)
chain: GUUAACGGUCAUAGGCCAUGGAAACUAGGAGCACCAUUUCGCUGCCAGUGAAGAAAUGAACAAAGAAAAUCUGGGCCAGGCAGGCAUCAAAAGAAAUAGUCUUGCGCUCAACCAGAAAGUCUGUAAUCAUUUUAAGGGUA

Variants of: B1
Experiment: self-cleavage, relative activity (ratio to wild type); higher = more cleavage; in vitro, sequencing; the parent is a self-cleaving ribozyme

Variant | self-cleavage
GUUAACGGUCAUAGGCCAUGGAAACUAGGAGCACCACUUCGCUGCCAGUGAAGAAAUGAACAAAGAAAAUCUGGGCCAGGCAGGCAUCAAAAGAAAUAGUCUUGCGCACAACCAGAAAGUCUGUAAUCAUUUUAAGGGUA [U37C U108A] | 0.04
GUUAACGGUCAUAGGCCAUGGAAACUAGGAGCACCAUAUCGCUGCCAGUGAAGAAGUGAACAAAGAAAAUCUGGGCCAGGCAGGCAUCAAAAGAAAUAGUCUUGCGCUCAACCAGAAAGUCUGUAAUCAUUUUAAGGGUA [U38A A56G] | 0.94
GUUAACGGUCAUAGGCCAUGGAAACUAGGAGCACCAGUUCGCUGCCAGUGAAGAAAUGAACAAAGAAAAUCUGGGCCAGGCAGGCAUCAAAAGAAAUAGUCUUGCGCUCAGCCAGAAAGUCUGUAAUCAUUUUAAGGGUA [U37G A111G] | 0.03
GUUAACGGUCAUAGGCCAUGGAAACUAGGAGCACCAGUUCGCUGCCAGUGAAGAAAUGAACAAAGAAAAUCUGGGCCAGGCAGGCAUCAAAAGAAAUAGUCUUGCGCUCAACCAGAAAGUCUGUAAUCAUUCUAAGGGUA [U37G U132C] | 0.78
GUUAACGGUCAUAGGCCAUGGAAACUAGGAGCACCAGUUCGCUGCCAGUGAAGAAAUGAACAAAGAAAAUCUGGGCCAGGCAGGCAUCAAAAGAAAUAGUCUUGCGCUCAACCAGAAAGUCUGUAAUCAUCUUAAGGGUA [U37G U131C] | 1.37
GUUAACGGUCAUAGGCCAUGGAAACUAGGAGCACCAUAUCGCUGCCGGUGAAGAAAUGAACAAAGAAAAUCUGGGCCAGGCAGGCAUCAAAAGAAAUAGUCUUGCGCUCAACCAGAAAGUCUGUAAUCAUUUUAAGGGUA [U38A A47G] | 1.59
GUUAACGGUCAUAGGCCAUGGAAACUAGGAGCACCAUAUCGCUGCCUGUGAAGAAAUGAACAAAGAAAAUCUGGGCCAGGCAGGCAUCAAAAGAAAUAGUCUUGCGCUCAACCAGAAAGUCUGUAAUCAUUUUAAGGGUA [U38A A47U] | 1.31
GUUAACGGUCAUAGGCCAUGGAAACUAGGAGCACCAUAUCGCUGCCAGUGAAGAAAUGAACAAAGAAAAUCUGGGCCAGGCAGGCAUCAUAAGAAAUAGUCUUGCGCUCAACCAGAAAGUCUGUAAUCAUUUUAAGGGUA [U38A A90U] | 2.21
GUUAACGGUCAUAGGCCAUGGAAACUAGGAGCACCAGUUCGCUGCCAGUGAAGAAAUGAACAAAGAAAAUCUGGGCCAGGCAGGCAUCAAAAGAAAUAGCCUUGCGCUCAACCAGAAAGUCUGUAAUCAUUUUAAGGGUA [U37G U100C] | 1.67
GUUAACGGUCAUAGGCCAUGGAAACUAGGAGCACCAGUUCGCUGCCAGUGAAGAAAUGAACGAAGAAAAUCUGGGCCAGGCAGGCAUCAAAAGAAAUAGUCUUGCGCUCAACCAGAAAGUCUGUAAUCAUUUUAAGGGUA [U37G A62G] | 1.44
GUUAACGGUCAUAGGCCAUGGAAACUAGGAGCACCAGUUCGCUGCCAGUGAAGAAAUGAACAAAGAAAAUCUGGGCCAGGCAGGCAUCGAAAGAAAUAGUCUUGCGCUCAACCAGAAAGUCUGUAAUCAUUUUAAGGGUA [U37G A89G] | 1.75
GUUAACGGUCAUAGGCCAUGGAAACUAGGAGCACCAGUUCGCUGCCAGUGAAGAAAUGAACAAAGAAAAUCUGGGCCAGGCAGGCAUCAAGAGAAAUAGUCUUGCGCUCAACCAGAAAGUCUGUAAUCAUUUUAAGGGUA [U37G A91G] | 1.82
GUUAACGGUCAUAGGCCAUGGAAACUAGGAGCACCAUAUCGCUGCCAGUGAAGAAAUGAACAAAGAAAAUCUGGGCCAGGCAGGCAUCAAGAGAAAUAGUCUUGCGCUCAACCAGAAAGUCUGUAAUCAUUUUAAGGGUA [U38A A91G] | 1.4
GUUAACGGUCAUAGGCCAUGGAAACUAGGAGCACCACUUCGCUGCCAGUGAAGAAAUGAACAAAGAAAAUCUGGGCCAGGCAGGCAUCAAAAGAAAUAGUCUUGCGCUCAACCAGAAAGUCAGUAAUCAUUUUAAGGGUA [U37C U122A] | 1.4
GUUAACGGUCAUAGGCCAUGGAAACUAGGAGCACCAUAUCGCUGCCAGUGAAGAGAUGAACAAAGAAAAUCUGGGCCAGGCAGGCAUCAAAAGAAAUAGUCUUGCGCUCAACCAGAAAGUCUGUAAUCAUUUUAAGGGUA [U38A A55G] | 1
GUUAACGGUCAUAGGCCAUGGAAACUAGGAGCACCAGUUCGCUGCCGGUGAAGAAAUGAACAAAGAAAAUCUGGGCCAGGCAGGCAUCAAAAGAAAUAGUCUUGCGCUCAACCAGAAAGUCUGUAAUCAUUUUAAGGGUA [U37G A47G] | 1.16
GUUAACGGUCAUAGGCCAUGGAAACUAGGAGCACCAUAUCGCUGCCAGUGAAGAAAUGAACGAAGAAAAUCUGGGCCAGGCAGGCAUCAAAAGAAAUAGUCUUGCGCUCAACCAGAAAGUCUGUAAUCAUUUUAAGGGUA [U38A A62G] | 1.19
GUUAACGGUCAUAGGCCAUGGAAACUAGGAGCACCAUAUCGCUGCCAGUGAAGAAAUGAACAAAGAAAAUCUGGGCCAGGCAGGCAUCAAAAGAAAUAGUCUUGCGCUCAACCGGAAAGUCUGUAAUCAUUUUAAGGGUA [U38A A114G] | 0.96
GUUAACGGUCAUAGGCCAUGGAAACUAGGAGCACCAUAUCGCUGCCAGUGAAGAAAUGAACAAAGAAAAUCUGGGCCAGGCAGGCAUCAAAAGAAAUGGUCUUGCGCUCAACCAGAAAGUCUGUAAUCAUUUUAAGGGUA [U38A A98G] | 0.91
GUUAACGGUCAUAGGCCAUGGAAACUAGGAGCACCAGUUCGCUGCCAGUGAAGAAAUGAACAAAGAAGAUCUGGGCCAGGCAGGCAUCAAAAGAAAUAGUCUUGCGCUCAACCAGAAAGUCUGUAAUCAUUUUAAGGGUA [U37G A68G] | 1.5
GUUAACGGUCAUAGGCCAUGGAAACUAGGAGCACCAGUUCGCUGCCAGUGAAGAAAUGAGCAAAGAAAAUCUGGGCCAGGCAGGCAUCAAAAGAAAUAGUCUUGCGCUCAACCAGAAAGUCUGUAAUCAUUUUAAGGGUA [U37G A60G] | 1.48
